Source: the supplement of paper PMC9233669
This sample holds only a part of the variants without activity.

Key:
biotinyl-Leu-oxazolone = experiment: self-aminoacylation, catalytic enhancement (BLO) (fold over background); higher = more active; k-Seq, kA / k0A0; sequences stand for … in GGGAAUGGAUCCACAUCUACGAAUUC…UUCACUGCAGACUUGACGAAGCUG
In short: (§1)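 Catalytic enhancement equals the median kA over the uncatalyzed rate, the latter read from the low-activity peak of a bimodal Gaussian fit. Values of kA came from fitting each sequence's fraction reacted to a pseudo-first-order model, with 1000 bootstraps. Reacted RNA was captured with streptavidin and quantified by triplicate qPCR and Illumina sequencing after 90 minutes at room temperature with 2–1250 μM biotinyl-aminoacyl-oxazolone and 0.43 μM mutagenized RNA pools bearing a 21-nt variable region.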

biotinyl-Met-oxazolone = experiment: self-aminoacylation, catalytic enhancement (BMO) (fold over background); higher = more active; k-Seq, kA / k0A0; sequences stand for … in GGGAAUGGAUCCACAUCUACGAAUUC…UUCACUGCAGACUUGACGAAGCUG
In short: as §1

biotinyl-Ile-oxazolone = experiment: self-aminoacylation, catalytic enhancement (BIO) (fold over background); higher = more active; k-Seq, kA / k0A0; sequences stand for … in GGGAAUGGAUCCACAUCUACGAAUUC…UUCACUGCAGACUUGACGAAGCUG
In short: as §1

biotinyl-Trp-oxazolone = experiment: self-aminoacylation, catalytic enhancement (BWO) (fold over background); higher = more active; k-Seq, kA / k0A0; sequences stand for … in GGGAAUGGAUCCACAUCUACGAAUUC…UUCACUGCAGACUUGACGAAGCUG
In short: as §1

biotinyl-Phe-oxazolone = experiment: self-aminoacylation, catalytic enhancement (BFO) (fold over background); higher = more active; k-Seq, kA / k0A0; sequences stand for … in GGGAAUGGAUCCACAUCUACGAAUUC…UUCACUGCAGACUUGACGAAGCUG
In short: as §1

biotinyl-Val-oxazolone = experiment: self-aminoacylation, catalytic enhancement (BVO) (fold over background); higher = more active; k-Seq, kA / k0A0; sequences stand for … in GGGAAUGGAUCCACAUCUACGAAUUC…UUCACUGCAGACUUGACGAAGCUG
In short: as §1

Row | Sequence | self-aminoacylation (biotinyl-Leu-oxazolone) | self-aminoacylation (biotinyl-Met-oxazolone) | self-aminoacylation (biotinyl-Ile-oxazolone) | self-aminoacylation (biotinyl-Trp-oxazolone) | self-aminoacylation (biotinyl-Phe-oxazolone) | self-aminoacylation (biotinyl-Val-oxazolone)
1 | AUUACCCGGGACAUCGAGUGA [Fam2.1 aminoacylation ribozyme variant] | 11.2 | 10.5 | 4.52 | 12.3 | 80.3 | 5.01
2 | AUUCACCUACGUCAUCGGUUG [Fam2.2 aminoacylation ribozyme variant] | 0.647 | 0.738 | 0.789 | 0.436 | 0.512 | 1.05
3 | CCACACUUCAAGCAAUCUGUG [Fam1B.1 aminoacylation ribozyme variant] | 0.657 | 0.547 | 0.514 | 0.383 | 0.656 | 0.635
4 | CUACACUUCAAGCAAUAGGUC [Fam1B.1 aminoacylation ribozyme variant] | 0.527 | 0.44 | 0.542 | 0.506 | 1.06 | 0.585
5 | AAGUUUGCGAAUAGUCGCAGG [Fam3.1 aminoacylation ribozyme variant] | 1.89 | 1.79 | 1.7 | 2.44 | 4.04 | 1.59
6 | AUUACCCUGGACAUCUAGUGA [Fam2.1 aminoacylation ribozyme variant] | 5.12 | 5.4 | 2.55 | 5.51 | 17 | 2.71
7 | CAACUUCAAGCAAUCGGUCUG [Fam1A.1 aminoacylation ribozyme variant] | 2.26 | 1.59 | 1.54 | 20.5 | 27.2 | 1.39
8 | CUACUUUAAACAAUAGGUCUG [Fam1A.1 aminoacylation ribozyme variant] | 0.841 | 0.979 | 0.925 | 0.648 | 0.945 | 0.891
9 | CUUACCCUGGUCAUCGAGUGG [Fam2.1 aminoacylation ribozyme variant] | 8.35 | 8.78 | 3.47 | 7.54 | 16.9 | 3.74
10 | CUACUUCAAAGAAUCGGUCUA [Fam1A.1 aminoacylation ribozyme variant] | 0.737 | 0.608 | 0.748 | 0.542 | 1.2 | 0.665
11 | AAGUUUGCUAAUAGUGGCAAA [Fam3.1 aminoacylation ribozyme variant] | 0.789 | 0.891 | 1.09 | 1.24 | 0.91 | 1.04
12 | CCGCACUUCAACCAAUCGGUC [Fam1B.1 aminoacylation ribozyme variant] | 3.41 | 2.05 | 2.09 | 67.5 | 148 | 2.38
13 | CAACUUCAAAAAAUCGGUCUG [Fam1A.1 aminoacylation ribozyme variant] | 1.46 | 1.15 | 1.7 | 11.9 | 14.8 | 1.31
14 | AUUACCGUGGUCACCGAGUGA [Fam2.1 aminoacylation ribozyme variant] | 3.65 | 3.87 | 2.39 | 2.95 | 9.08 | 2.83
15 | CCGCACUUCAAGCAAUCGGAC [Fam1B.1 aminoacylation ribozyme variant] | 0.812 | 1 | 1.07 | 1.86 | 1.31 | 1.12
16 | AUUCACCUAGCUCAUAGGGUG [Fam2.2 aminoacylation ribozyme variant] | 1.37 | 1.24 | 1.08 | 0.658 | 1.04 | 1.13
17 | CCUGACUUCAAGCAAUCGGUC [Fam1B.1 aminoacylation ribozyme variant] | 1.63 | 1.17 | 1.22 | 23.1 | 45.6 | 1.35
18 | AAGUAUGCUAAUAGUUGCAAG [Fam3.1 aminoacylation ribozyme variant] | 1.11 | 1.71 | 1.44 | 1.73 | 2.31 | 1.38
19 | AAGUUUGCUAAUAGUCACGAG [Fam3.1 aminoacylation ribozyme variant] | 0.881 | 1.33 | 1.26 | 1.34 | 1.54 | 1.22
20 | ACAUUUGCUAAUAGUCGCAAG [Fam3.1 aminoacylation ribozyme variant] | 2.43 | 1.79 | 2.46 | 1.32 | 2.27 | 1.92
21 | CUAAUUCAAACAAUGGGUCUG [Fam1A.1 aminoacylation ribozyme variant] | 0.643 | 0.777 | 0.742 | 0.468 | 0.481 | 0.739
22 | CUACUUCUAACAAUCGAUCUG [Fam1A.1 aminoacylation ribozyme variant] | 0.509 | 0.522 | 0.674 | 0.416 | 0.698 | 0.67
23 | AUUCCUCUGGUCAUCGAGUGA [Fam2.1 aminoacylation ribozyme variant] | 6.46 | 6.73 | 3.75 | 7.73 | 31.6 | 4.02
24 | CUACUUCAUACAAUCGCUCUG [Fam1A.1 aminoacylation ribozyme variant] | 0.605 | 0.626 | 0.66 | 0.357 | 0.52 | 0.627
25 | AUUCACAUAGGUCUUCGGGUG [Fam2.2 aminoacylation ribozyme variant] | 5.35 | 4.21 | 4.26 | 5.51 | 39.4 | 4.59
26 | CUACUUCAAACCAUAGGUCUG [Fam1A.1 aminoacylation ribozyme variant] | 0.615 | 0.47 | 0.807 | 0.487 | 0.985 | 0.809
